This note sets out measurements from publication PMC4915977 (Current biology : CB, 2016).

Experiment [1] deals with Mst2 SARAH domain with a C-terminal Cys, AEDANS-labelled (UniProt Q13188). As to the kind of experiment: FRET or BRET. (Bioluminescence resonance energy transfer reports proximity on the nanometre scale.)
The target in experiment [2] is Mst1 SARAH domain with a C-terminal Cys, AEDANS-labelled (UniProt Q13043). The experiment can be described thus: FRET or BRET.
The target in experiment [3] is T1, HA-tagged Mst2, full-length (UniProt Q13188 1-491).
T1 sequence (looked up): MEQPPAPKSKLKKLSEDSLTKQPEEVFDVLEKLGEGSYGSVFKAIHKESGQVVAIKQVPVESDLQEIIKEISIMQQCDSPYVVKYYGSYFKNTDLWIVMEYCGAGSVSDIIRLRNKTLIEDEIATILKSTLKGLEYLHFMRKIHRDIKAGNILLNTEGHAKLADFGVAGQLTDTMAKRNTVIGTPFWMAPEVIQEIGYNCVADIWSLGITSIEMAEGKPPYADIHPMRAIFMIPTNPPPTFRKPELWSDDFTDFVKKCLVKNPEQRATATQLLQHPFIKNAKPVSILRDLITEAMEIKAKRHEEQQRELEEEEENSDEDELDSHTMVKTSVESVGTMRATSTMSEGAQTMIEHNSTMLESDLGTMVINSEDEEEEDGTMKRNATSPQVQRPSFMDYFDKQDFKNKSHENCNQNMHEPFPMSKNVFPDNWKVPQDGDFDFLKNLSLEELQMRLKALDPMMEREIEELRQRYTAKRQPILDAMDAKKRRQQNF
The experiment can be described thus: co-IP.

In turn, “Mst1 SARAH domain, unlabeled (from UniProt Q13043 433-480) (domain or fragment)” displayed a Kd in experiment [1] of 0.72 µM.
In experiment [2], “Mst1 SARAH domain with a C-terminal Cys, AEDANS-labelled (from UniProt Q13043 433-480) (domain or fragment)” registered a Kd of 6.5 µM.
“Mst2-LW SARAH domain, unlabeled (from UniProt Q13188 437-484) (domain or fragment)” returned a Kd in experiment [1] of 4.3 µM.

B1: Myc-tagged Mst1, full-length (1-487) (natural protein, UniProt Q13043 1-487, looked up)
chain: METVQLRNPPRRQLKKLDEDSLTKQPEEVFDVLEKLGEGSYGSVYKAIHKETGQIVAIKQVPVESDLQEIIKEISIMQQCDSPHVVKYYGSYFKNTDLWIVMEYCGAGSVSDIIRLRNKTLTEDEIATILQSTLKGLEYLHFMRKIHRDIKAGNILLNTEGHAKLADFGVAGQLTDTMAKRNTVIGTPFWMAPEVIQEIGYNCVADIWSLGITAIEMAEGKPPYADIHPMRAIFMIPTNPPPTFRKPELWSDNFTDFVKQCLVKSPEQRATATQLLQHPFVRSAKGVSILRDLINEAMDVKLKRQESQQREVDQDDEENSEEDEMDSGTMVRAVGDEMGTVRVASTMTDGANTMIEHDDTLPSQLGTMVINAEDEEEEGTMKRRDETMQPAKPSFLEYFEQKEKENQINSFGKSVPGPLKNSSDWKIPQDGDYEFLKSWTVEDLQKRLLALDPMMEQEIEEIRQKYQSKRQPILDAIEAKKRRQQNF
Turning to B1, the “level of heterodimers relative to homodimers” value in experiment [3] was ~60%.

As usually defined, the Kd is the concentration at which binding is half-saturated.
